Where two headings read alike, the source gives them in different places.
Tests used:
[1] = blood clearance of ^131I-labelled modified SA and Avid in rabbits; settings: rabbit, ^131I label, over 2 hours
Protocol: (§1) The blood clearance kinetics of the compounds of the present invention can be assessed by in vivo assays. The modified Avid and SA compounds are detectably labeled, for example by radiolabeling, injected into animals, and blood clearance is then determined by biodistribution analysis of radiolabeled samples. For example, the compounds of the present invention can be radiolabeled with ^131I by the Pierce lodobead method (Pierce, Rodeford, Ill.) and separated from free iodine for example by ultrafiltration using CENTRICON-30 filters. Experimental animals, for example, rabbits weighing about 3 kilograms, are fasted, anesthetized, and an external jugular vein is dissected and catheterized for injection and collection of blood samples. A radiolabeled compound of the present invention is injected. Whole blood samples are taken at various time intervals for about two hours. By comparing the blood clearance of galactose-modified SA with native SA, and Avid-E, the skilled artisan can determine the extent of modification that results in optimal blood clearance.
(§2) SA and Avid, 0.5 mg, were radiolabeled with starting activities of ˜0.3 mCi ^131I and ˜0.1 mCi ^131I, respectively.
(§3) Biodistribution was determined in vivo. New Zealand White rabbits, ˜3 kg, (n=3 per experiment) were fasted for 12 hours prior to the experiment and anesthetized using an intramuscular injection of chlorpromazine (25 mg/kg) followed by intravenous sodium pentobarbital (15 mg/kg). An external jugular vein was dissected and catheterized using a 5 French straight catheter for injection and collection of whole blood. The animal was placed in a supine position under the gamma camera for imaging and was then injected with [75 μg] of the radiolabeled proteins prepared above. Whole blood samples (2-3 ml) were taken at intervals for 2 hours. Planar gamma camera images (30K count acquisition) were taken at 5, 30, 60 and 120 minutes. At two hours, animals were euthanized. Major organs were removed, weighed and representative samples taken for biodistribution analysis. Blood volume was estimated to be 6% of total body weight.

[2] = biodistribution and gamma camera imaging of ^131I-labelled modified SA and Avid in rabbits; settings: rabbit; for kidney accumulation (biodistribution) / liver accumulation (biodistribution): 2 hours after injection; for planar gamma camera images, location of activity: images at 5, 30 and 120 minutes
Protocol: as §2, §3

[3] = DACB (biotin chelate) saturation / biotin binding assay
Protocol: The ability of the compounds of the present invention to bind to biotin can be assessed by in vitro assays known to one of ordinary skill in the art. For example, the compounds of the present invention are incubated with a molar excess of radiolabeled biotin under conditions sufficient for avidin-biotin or streptavidin-biotin binding. Biotin bound to the tested compound is separated from unbound biotin, for example by filtration. The bound biotin/modified Avid or SA ratio is determined by dividing the activity in the retentate by the specific activity of the radiolabeled biotin. The binding ratios for each modified Avid or SA compound are determined by dividing the bound moles of biotin by the moles of each compound.
In a preferred embodiment, the radiolabeled biotin is the biotin chelate deferoxamineacetylcysteinylbiotin (DACB) labeled with ^67Ga. DACB is known in the art and described for example by Rosebrough et al (1993) J. Pharm. Exp. Therap. 265:408 and in U.S. Pat. No. 5,326,778. DACB can be radiolabeled by direct addition of carrier free ^67Ga citrate (DuPont Merck Pharmaceutical Co., Billerica, Mass.). Samples of Avid, SA, modified Avid, and modified SA are incubated with a 20/1 molar excess of ^67Ga-DACB on CENTRICON-30 filters (Amicon, Beverly, Mass.) in 0.05M Tris/0.15M NaCl, pH 7.5. After two washings, the bound DACB/protein ratio is determined by dividing the bound activity in the retentate by the specific activity of ^67Ga-DACB. The binding ratio for each compound is determined by dividing the bound moles of DACB by the moles of streptavidin. […]
The purified DACB was then used to access the ability of the compounds prepared in accordance with Examples I-III to bind to biotin. […] After 2 washings, the bound DACB/protein ratio was determined by dividing the bound activity in the retentate by the specific activity of ^67Ga DACB (˜2×10^16 cpm/mole). The binding ratios for each sample were determined by dividing the bound moles of DACB by the moles of each protein. […]

[4] = set-up: species or system rabbits; settings: rabbit, in vivo, 0.12 mg
Protocol: 0.3 mg of SA-Tgal or SA-pTgal were-added to a microcentrifuge tube containing ˜0.5 mCi of I-131. Three Iodobeads were added and then mixed and incubated for 12 minutes at room temperature. Free I-131 was removed by ultrafiltration using centricon-30 filters. SA-Tgal and SA-pTgal concentration was determined spectrophotometrically. (E^1%280 nm=34)
0.12 mg of I-131 SA-Tgal and I-131 SA-pTgal were injected into rabbits for two hours. […] The liver accumulation for SA-Tgal was 90% compared to 16% for SA-pTgal.

[5] = rabbit, in vivo
Protocol: as §1, §2, §3

[6] = rabbit, in vivo; remark: listed apart in the source
Protocol: as §2, §3

Substance | blood clearance (in words) [1] | kidney accumulation (biodistribution) [2] | liver accumulation (biodistribution) [2] | planar gamma camera images, location of activity [2] | DACB saturation analysis ([3]; sample made at NHS-Ac/Avid molar ratio 10) | DACB saturation analysis ([3]; sample made at NHS-Ac/Avid molar ratio 25) | blood clearance (in words) [4] | DACB binding ratio (bound moles DACB per mole protein) ([3]; 20/1 molar excess ^67Ga DACB, pH 7.5) | percent of injected dose circulating in the blood at 2 hours [5] | planar gamma camera images, location of activity [6]
avidin [reference compound] | cleared quickly | accumulated mostly in the liver and kidney | accumulated mostly in the liver and kidney | exclusively in the liver and kidneys |  |  |  |  |  | 
Avid-N: avidin neutralized by acetylation of its lysine amino acids | cleared slower than native Avid | decreased considerably | high liver accumulation | dramatic reduction in kidney activity and a corresponding increase in liver activity | approximated the binding of DACB to native avidin | approximated the binding of DACB to native avidin |  |  |  | 
SA-pTgal: acetylated Tgal modified streptavidin |  |  |  |  |  |  | much slower than that of the SA-Tgal |  |  | 
Avid-E/N: avidin both neutralized and deglycosylated | substantially prolonged | low levels in both the kidney and liver | low levels in both the kidney and liver | circulatory activity with a corresponding decrease in liver and kidney activity |  |  |  |  |  | 
streptavidin [SA] |  |  |  |  |  |  |  | 3.6 | greater than 50% | vascular activity as indicated by systemic circulation and cardiac activity

Reference: patent publication US6429297B1, “Modified avidin and streptavidin and methods of use thereof” (University of Rochester, priority 1995, dated 2002)
